Test results published in PMC12846601.

Molecular target: HexaPro, recombinant SARS-CoV-2 spike protein vaccine candidate (SARS-CoV-2) (UniProt P0DTC2)
Assay: SEC; […], PBS ([…], pH 6.5), 1.25 mL/min, […]

HexaPro, recombinant SARS-CoV-2 spike protein vaccine candidate (from UniProt P0DTC2 14-1273) (natural protein)
stoichiometry N: 3
